Laboratory results taken from patent US20210380703A1 (RIGEL PHARMACEUTICALS, published 2021).
Residue numbers refer to the chain shown, from its start. Each block holds one binder with its values, some of them ahead of it.

Key:
[1] = molecular target: ACVR2A on primary human myotubes (human, UniProt P27037 20-513); assay: cell-based or functional assay
Human ACVR2A (on cells) = Human ACVR2A (on cells) (human, UniProt P27037 20-513); assay: cell-based or functional assay
Sequence of Human ACVR2A (on cells) (P27037 20-513): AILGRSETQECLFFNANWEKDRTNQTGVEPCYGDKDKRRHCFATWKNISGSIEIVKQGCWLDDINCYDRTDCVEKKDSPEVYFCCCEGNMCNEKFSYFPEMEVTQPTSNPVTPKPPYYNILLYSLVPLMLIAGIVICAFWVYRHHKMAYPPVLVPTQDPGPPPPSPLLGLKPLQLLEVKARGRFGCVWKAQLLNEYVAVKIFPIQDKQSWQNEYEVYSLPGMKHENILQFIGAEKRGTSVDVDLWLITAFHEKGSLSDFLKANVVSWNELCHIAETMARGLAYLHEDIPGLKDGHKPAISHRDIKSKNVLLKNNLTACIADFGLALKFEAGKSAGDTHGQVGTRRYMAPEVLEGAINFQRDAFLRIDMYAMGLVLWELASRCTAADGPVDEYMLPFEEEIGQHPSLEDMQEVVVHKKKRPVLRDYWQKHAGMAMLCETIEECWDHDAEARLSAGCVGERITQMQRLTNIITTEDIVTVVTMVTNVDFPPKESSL

Sequence of ACVR2A on primary human myotubes (P27037 20-513): as above

- Phospho-SMAD3 Human Skeletal Muscle GDF8 [1]: 0.0562
B1: 376_H01 (antibody, V domains shown)
VH: EVQLLESGGGLVQPGGSLRLSCAASGFTFSDYSMNWVRQAPGKGLEWVAGINYNGGYKGYADSVKGRFTISRDNSKNTLYLQMNSLRAEDTAVYYCARGANWHDTALDYWGQGTLVTVSS
VL: DIQMTQSPSSLSASVGDRVTITCRASQSILTYLNWYQQKPGKAPKLLIYAATSRASGVPSRFSGSGSGTDFTLTISSLQPEDFATYYCQQSYSTPLTFGGGTKVEIK

- Phospho-SMAD3 Human Skeletal Muscle GDF8 (AlphaLisa, primary human myotubes) (Human ACVR2A (on cells)): 0.0063
B6: 375_C12 (antibody, V domains shown)
VH: B1 VH with D31S, G50N, K58T, G99S, N101T, A106H
VL: B1 VL with S93D, T94L

- Phospho-SMAD3 Human Skeletal Muscle GDF8 (AlphaLisa, primary human myotubes) (Human ACVR2A (on cells)): 0.0318
B7: 375_A06 (antibody, V domains shown)
VH: B1 VH with D31S, G55S, G99S, N101T, A106H
VL: B1 VL with L33V, T52S, R54L, A55Q

- Phospho-SMAD3 Human Skeletal Muscle GDF8 (AlphaLisa, primary human myotubes) (Human ACVR2A (on cells)): 0.0112
B12: 375_G07 (antibody, V domains shown)
VH: B1 VH with S30D, D31S, G55S, K58T, G59S, G99S, N101T, A106H
VL: B1 VL with T31S, L47V, R54L, S93D, T94L

- Phospho-SMAD3 Human Skeletal Muscle GDF8 (AlphaLisa, primary human myotubes) (Human ACVR2A (on cells)): 0.0124
B17: 374_C05 (antibody, V domains shown)
VH: B1 VH with S30D, D31S, G55S, G59S, G99S, N101T, A106H
VL: B1 VL with L30I, T31R, L47V, S93D, T94N

- Phospho-SMAD3 Human Skeletal Muscle GDF8 (AlphaLisa, primary human myotubes) (Human ACVR2A (on cells)): 0.0086
B18: 376_B01 (antibody, V domains shown)
VH: B1 VH with S30D, D31S, K58T, G59S, G99S, N101T, A106H
VL: B1 VL with L33V, L47V, S93N, T94L

- Phospho-SMAD3 Human Skeletal Muscle GDF8 (AlphaLisa, primary human myotubes) (Human ACVR2A (on cells)): 0.0266
B19: 374_C11 (antibody, V domains shown)
VH: B1 VH with D31S, G55S, G99S, N101T, A106H
VL: B1 VL with S93E, T94S

- Phospho-SMAD3 Human Skeletal Muscle GDF8 (AlphaLisa, primary human myotubes) (Human ACVR2A (on cells)): 0.0043
B21: 376_A06 (antibody, V domains shown)
VH: B1 VH with S30D, D31S, A49S, G55S, K58T, G59S, G99S, N101T
VL: B1 VL with T31S, L47V, A50Y, A51V, T52S, S53N, S93D, T94N

- Phospho-SMAD3 Human Skeletal Muscle GDF8 [1]: 0.0042
B23: 376_H11 (antibody, V domains shown)
VH: B1 VH with S30D, D31S, A49S, G50N, K58T
VL: B1 VL with L30S, T31R, A51V, R54L, S93E, T94S

More lines, now with the values behind:

B2: 376_B06 (antibody, V domains shown)
VH: B1 VH with D31S, G55S, G99S, N101T, A106H
VL: B1 VL with S93D, T94L
- Phospho-SMAD3 Human Skeletal Muscle GDF8 (AlphaLisa, primary human myotubes) (Human ACVR2A (on cells)): 0.0042

B3: 367_A01 (antibody, V domains shown)
VH: B1 VH with D31S, G50S, K58T, G99S, N101T, A106H
VL: B1 VL with S93D, T94L
- Phospho-SMAD3 Human Skeletal Muscle GDF8 (AlphaLisa, primary human myotubes) (Human ACVR2A (on cells)): 0.0065

B4: 369_G07 (antibody, V domains shown)
VH: B1 VH with D31S, K58T, G59S, G99S, N101T, A106H
VL: B1 VL with L33V, L47V, S93D, T94N
- Phospho-SMAD3 Human Skeletal Muscle GDF8 (AlphaLisa, primary human myotubes) (Human ACVR2A (on cells)): 0.012

B5: 370_E07 (antibody, V domains shown)
VH: B1 VH with S30D, D31S, G50N, K58T, G99S, N101T, A106H
VL: B1 VL with S93D, T94N
- Phospho-SMAD3 Human Skeletal Muscle GDF8 (AlphaLisa, primary human myotubes) (Human ACVR2A (on cells)): 0.0046

B8: 369_A10 (antibody, V domains shown)
VH: B1 VH with S30D, D31S, G55S, K58T, G99S, N101T, A106H
VL: B1 VL with T31S, S93E, T94L
- Phospho-SMAD3 Human Skeletal Muscle GDF8 (AlphaLisa, primary human myotubes) (Human ACVR2A (on cells)): 0.0076

B9: 373_B08 (antibody, V domains shown)
VH: B1 VH with S30D, D31S, G50N, G55S, G99S, N101T, A106H
VL: B1 VL with L47V, R54L, S93E, T94N
- Phospho-SMAD3 Human Skeletal Muscle GDF8 (AlphaLisa, primary human myotubes) (Human ACVR2A (on cells)): 0.0102

B10: 373_E06 (antibody, V domains shown)
VH: B1 VH with S30D, D31S, G55S, G59S, G99S, N101T, A106H
VL: B1 VL with T31R, R54L, A55H, S93D, T94N
- Phospho-SMAD3 Human Skeletal Muscle GDF8 (AlphaLisa, primary human myotubes) (Human ACVR2A (on cells)): 0.0005

B11: 373_G05 (antibody, V domains shown)
VH: B1 VH with D31S, K58T, G59S, G99S, N101T, A106H
VL: B1 VL with T31S, R54L, S93E, T94L
- Phospho-SMAD3 Human Skeletal Muscle GDF8 (AlphaLisa, primary human myotubes) (Human ACVR2A (on cells)): 0.0059

B13: 365_F07 (antibody, V domains shown)
VH: B1 VH with D31S, A49S, G50N, G59S, G99S, N101T
VL: B1 VL with T31S, L33V, L47V, S93D, T94L
- Phospho-SMAD3 Human Skeletal Muscle GDF8 (AlphaLisa, primary human myotubes) (Human ACVR2A (on cells)): 0.011

B14: 366_A05 (antibody, V domains shown)
VH: B1 VH with D31S, G55S, K58T, G99S, N101T, A106H
VL: B1 VL with L33V, L47V, R54L, S93N
- Phospho-SMAD3 Human Skeletal Muscle GDF8 (AlphaLisa, primary human myotubes) (Human ACVR2A (on cells)): 0.0244

B15: 367_G07 (antibody, V domains shown)
VH: B1 VH with S30D, D31S, G50N, K58T, G99S, N101T, A106H
VL: B1 VL with L33V, S93D, T94N
- Phospho-SMAD3 Human Skeletal Muscle GDF8 (AlphaLisa, primary human myotubes) (Human ACVR2A (on cells)): 0.0068

B16: 365_D05 (antibody, V domains shown)
VH: B1 VH with S30D, D31S, K58T, G59S, G99S, N101T, A106H
VL: B1 VL with L33V, S93N, T94S
- Phospho-SMAD3 Human Skeletal Muscle GDF8 (AlphaLisa, primary human myotubes) (Human ACVR2A (on cells)): 0.0209

B20: 374_A11 (antibody, V domains shown)
VH: B1 VH with G50N, G55S, G99S, N101T, A106H
VL: B1 VL with T31S, L33V, L47V, T94S
- Phospho-SMAD3 Human Skeletal Muscle GDF8 (AlphaLisa, primary human myotubes) (Human ACVR2A (on cells)): 0.0086

B22: 372_D04 (antibody, V domains shown)
VH: B1 VH with D31S, G50N, G55S, K58T, G99S, N101T, A106H
VL: B1 VL with R54L, A55H, S93D, T94L
- Phospho-SMAD3 Human Skeletal Muscle GDF8 (AlphaLisa, primary human myotubes) (Human ACVR2A (on cells)): 0.0114

B24: 373_E02 (antibody, V domains shown)
VH: B1 VH with S30D, D31S, S33G, N35H, A49S, G99S, N101T, A106H
VL: not shown
- Phospho-SMAD3 Human Skeletal Muscle GDF8 (AlphaLisa, primary human myotubes) (Human ACVR2A (on cells)): 0.0049

B25: 373_B11 (antibody, V domains shown)
VH: B1 VH with D31S, G50N, G55S, G99S, N101T, A106H
VL: B1 VL with T31S, S93D, T94N
- Phospho-SMAD3 Human Skeletal Muscle GDF8 (AlphaLisa, primary human myotubes) (Human ACVR2A (on cells)): 0.0008
